Reference: the DeepSol protein solubility set

Assay: soluble on expression in E. coli; label from the status in PepcDB or PDB records

Sequence | soluble on expression in E. coli
GGGGGGMGSPYEYQPEVKWYHVLWDMRNKQFRQWYLKKKYRDMRIAYKYESHILYQKAGMGFLMAAVFMSIFSSDLAVAVFRWPTEDPNELLKSQVWQKYHNQLNERKEYADKLLQDSNYIHRKNNPGE | soluble
MPKRGLDVSSCEIFRFYKLITTKSLIEPVSMIVPRRSESYQEDIYPPTAAAQPSLTAHEWLSGMNRGKGGWEQAARLGNWSPGGPK | not soluble
MVNFTVDEIRALMDRKRNIRNMSVIAHVDHGKSTLTDSLVSKAGIIAGSKAGETRFTDTRKDEQERCITIKSTAISLFFELEKKDLEFVKGENQFETVEVDGKKEKYNGFLINLIDSPGHVDFSSEVTAALRVTDGALVVVDCVSGVCVQTETVLRQAIAERIKPVLFMNKMDRALLELQLGAEELFQTFQRIVENINVIIATYGDDDGPMGPIMVDPSIGNVGFGSGLHGWAFTLKQFAEMYAGKFGVQVDKLMKNLWGDRFFDLKTKKWSSTQTDESKRGFCQFVLDPIFMVFDAVMNIKKDKTAALVEKLGIKLANDEKDLEGKPLMKVFMRKWLPAGDTMLQMIAFHLPSPVTAQKYRMEMLYEGPHDDEAAVAIKTCDPNGPLMMYISKMVPTSDKGRFYAFGRVFSGKVATGMKARIQGPNYVPGKKEDLYEKTIQRTILMMGRFIEPIEDIPSGNIAGLVGVDQYLVKGGTITTYKDAHNMRVMKFSVSPVVRVAVEAKNPADLPKLVEGLKRLAKSDPMVQCIFEESGEHIIAGAGELHLEICLKDLEEDHACIPLKKSDPVVSYRETVQSESNQICLSKSPNKHNRLHCTAQPMPDGLADDIEGGTVNARDEFKARAKILAEKYEYDVTEARKIWCFGPDGTGPNLLMDVTKGVQYLNEIKDSVVAGFQWATREGVLSDENMRGVRFNVHDVTLHADAIHRGGGQIIPTARRVFYASVLTAEPRLLEPVYLVEIQCPEAAVGGIYGVLNRRRGHVFEESQVTGTPMFVVKAYLPVNESFGFTADLRSNTGGQAFPQCVFDHWQVLPGDPLEAGTKPNQIVLDTRKRKGLKEGVPALDNYLDKM | not soluble
MAHHHHHHMFANLDEEKKARLRERILQAAAAPPPAATPARSNSDSDGEQEVPPQHTESTKHASEQLAINAQSTDIDIANIRLFTLDELDLNQLTECKTLSLRKNLIHELSAFPQHLAGRLVELDLFDNKIRKVRDFFDSAMVPDPESGSLSKKAVPHAFYSLTKLDLSYNQLRKITGLDSLGSTLKELYLVENKIKVIEGLDSFVHLELLELGGNRIREIGSGLSNLRSLQSLWLGKNKIHSIGDSLHNLRELRKLSLQANRLTSITAEAFKEGCNPYLAELYLSENGISTIENLPLHSLHLLDFSFNPISTINEAVINPTNMPELEEFWLTDGSISDWGEVKKFCGFANTLRTIYVERNPIEQDKRYRDKVYMNLPFVTQIDSWPVVNKDNLEGDRLIQRRAS | not soluble
MGSDKIHHHHHHVSTSVTKRPLTLVLASPRGFCAGVDRAIHIVERALEKYGAPVYVRHEIVHNRFVVESLAQKGAVFVEELDEVPDEAAVVFSAHGVPKTVPAEADRRGLTSLDATCPLVTKVHREAELHHAMGRQIIMIGHAGHPEVIGTIGQVPDGTVLLVGTPEEAEKVAPKNASMLAYITQTTLSVDDAAAVTEVLQRRFPEIVGPKREDICYATTNRQAAVKTIAPKCEALMVIGSPNSSNSSRLVEVAARAGCARSVLVQRAAEVDWSLLDGVDRLGITAGASAPEILVEEVVAAARERFDVTIEEIRVTTETVTFKLPQALSE | not soluble
MAHHHHHHMRRSALRGAARGNDNGAICRRYRDTSLCVVTSLTPSVHGGGSTSVVASSSSLSCPPRPSACYATAMHMSARHRLTNASILSNIKSMANEKDDLTSKLVYLRRRQEDAIAFAVKEKEMLAEKAKRQLAMEEEKLKVEARIEALISEAAQLGGPAAAQRMRDEIAKDKTRYVRSVDAFGDKTVRLQHTFAGLADNRIIHWWEYAYWNYIRYFFTQELLIAKDRFGNKFTVTWQFLKGREEQRRMYRKDSNKKHQPYGALATDERLWERWMRGHRGDPPSVAEEEHLRDYKKQFFGAMVLEDEEVEDALMRLMAHMNRASQTFQELDEDQVYGDAHRVAKPLRETERKPGEEMSARQKQKGATWTLGFARGDLFYNEEETQVMRTEMGHLFRNMEWQELEYKRQVRMNKQQPPHGKPPEGTTDPNTPDGDPMNHYWERTDLGIPYHDAVPDLTTPELERMRIESSQLEDERLAIRKELGLTDLGDIREGREPIKRDHAPFQPPPVSQRWKPKCWEESWGTGSGMKY | not soluble
